The supplement of paper PMC9112550, “Optimization of the antimicrobial peptide Bac7 by deep mutational scanning” (BMC Biology, 2022)

These sequences were tested on Escherichia coli TOP10 (assay: shrunken log2 fold change of peptide-encoding DNA abundance (4.5 h post-induction vs induction); higher = less antimicrobial activity (less host growth inhibition)). Conditions: time post-induction: 4.5 h; library: site-saturation at positions 5, 18, 19, 20.
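Note: peptides expressed intracellularly from a pBAD plasmid library in pooled LB shake-flask culture, induced with 0.3% L-arabinose, DNA abundance read by NGS, three biological replicates, DESeq2 with apeglm shrinkage.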

Sequence	shrunken log2 fold change
RRIRFRPPRLPRPRPRPPYPPRP	-0.0265
RRIRSRPPRLPRPRPRPAHTPRP	-0.379
RRIRCRPPRLPRPRPRPLDQPRP	0.221
RRIRLRPPRLPRPRPRPGNLPRP	-0.137
RRIRPRPPRLPRPRPRPTWHPRP	0.316
RRIRKRPPRLPRPRPRPDHNPRP	-0.276
RRIRVRPPRLPRPRPRPYYLPRP	-0.286
RRIRMRPPRLPRPRPRPYVDPRP	-0.249
RRIRARPPRLPRPRPRPNVIPRP	-0.433
RRIRDRPPRLPRPRPRPGYIPRP	-0.304
RRIRQRPPRLPRPRPRPGGHPRP	0.201
RRIRKRPPRLPRPRPRPGWCPRP	0.639
RRIRLRPPRLPRPRPRPNFKPRP	-0.206
RRIRVRPPRLPRPRPRPNGEPRP	0.0914
RRIRGRPPRLPRPRPRPTVPPRP	0.433
RRIRSRPPRLPRPRPRPETLPRP	0.0893
RRIRTRPPRLPRPRPRPPSPPRP	0.236
RRIRQRPPRLPRPRPRPIGFPRP	-0.0702
RRIRGRPPRLPRPRPRPMWLPRP	0.25
RRIRARPPRLPRPRPRPLSNPRP	0.25
RRIRDRPPRLPRPRPRPHYKPRP	-0.297
RRIRGRPPRLPRPRPRPEGAPRP	1.49

Sequence	shrunken log2 fold change
RRIRERPPRLPRPRPRPSTYPRP	-0.263
RRIRGRPPRLPRPRPRPIRPPRP	0.209
RRIRCRPPRLPRPRPRPPMNPRP	-0.0519
RRIRTRPPRLPRPRPRPTHFPRP	0.301
RRIRERPPRLPRPRPRPPRIPRP	-0.453
RRIRFRPPRLPRPRPRPCNIPRP	0.0928
RRIRMRPPRLPRPRPRPHCPPRP	-0.506
RRIRFRPPRLPRPRPRPLANPRP	0.0332
RRIRHRPPRLPRPRPRPFQRPRP	0.0038
RRIRLRPPRLPRPRPRPHGSPRP	-0.0692
RRIRSRPPRLPRPRPRPQSYPRP	0.107
RRIRHRPPRLPRPRPRPESPPRP	0.0722
RRIRSRPPRLPRPRPRPILIPRP	-0.384
RRIRMRPPRLPRPRPRPLFEPRP	0.633
RRIRYRPPRLPRPRPRPYTDPRP	-0.396
RRIRDRPPRLPRPRPRPACFPRP	0.664
RRIRDRPPRLPRPRPRPFWQPRP	0.0546
RRIRDRPPRLPRPRPRPSIDPRP	-0.145
RRIRLRPPRLPRPRPRPLDCPRP	0.0132
RRIRYRPPRLPRPRPRPGDMPRP	-0.464
RRIRARPPRLPRPRPRPIYDPRP	-0.138
RRIRHRPPRLPRPRPRPMCLPRP	-0.0755

Sequence	shrunken log2 fold change
RRIRIRPPRLPRPRPRPRQDPRP	0.0231
RRIRARPPRLPRPRPRPYKSPRP	-0.441
RRIRCRPPRLPRPRPRPLRDPRP	0.948
RRIRDRPPRLPRPRPRPVDFPRP	0.0775
RRIRYRPPRLPRPRPRPNMLPRP	-1.22
RRIRPRPPRLPRPRPRPGWAPRP	0.623
RRIRFRPPRLPRPRPRPLWQPRP	-0.308
RRIRHRPPRLPRPRPRPCAIPRP	-0.303
RRIRKRPPRLPRPRPRPYIQPRP	-0.319
RRIRHRPPRLPRPRPRPDKFPRP	-0.16
RRIRNRPPRLPRPRPRPIKSPRP	-0.245
RRIRMRPPRLPRPRPRPVCCPRP	0.496
RRIRNRPPRLPRPRPRPPNQPRP	-0.0523
RRIRFRPPRLPRPRPRPVVRPRP	0.153
RRIRGRPPRLPRPRPRPSQEPRP	0.172
RRIRQRPPRLPRPRPRPFMYPRP	0.000979
RRIRLRPPRLPRPRPRPWWYPRP	-0.227
RRIRCRPPRLPRPRPRPSMKPRP	-0.567
RRIRDRPPRLPRPRPRPMGAPRP	1.43
RRIRMRPPRLPRPRPRPPVPPRP	1.01
RRIRARPPRLPRPRPRPEHDPRP	-0.0905
RRIRYRPPRLPRPRPRPVVTPRP	-0.351

Sequence	shrunken log2 fold change
RRIRKRPPRLPRPRPRPFIQPRP	0.0388
RRIRQRPPRLPRPRPRPVVKPRP	-0.031
RRIRYRPPRLPRPRPRPGTKPRP	-0.0505
RRIRQRPPRLPRPRPRPCVYPRP	4.4
RRIRGRPPRLPRPRPRPYWPPRP	0.0961
RRIRWRPPRLPRPRPRPVFPPRP	0.268
RRIRLRPPRLPRPRPRPCTKPRP	-0.22
RRIRWRPPRLPRPRPRPISVPRP	-0.186
RRIRLRPPRLPRPRPRPLLAPRP	0.188
RRIRWRPPRLPRPRPRPQYAPRP	-0.0905
RRIRMRPPRLPRPRPRPTTWPRP	0.745
RRIRGRPPRLPRPRPRPWAYPRP	-0.151
RRIRWRPPRLPRPRPRPFSTPRP	-0.14
RRIRTRPPRLPRPRPRPEFIPRP	0.0102
RRIRIRPPRLPRPRPRPEPMPRP	0.132
RRIRCRPPRLPRPRPRPWALPRP	0.0591
RRIRWRPPRLPRPRPRPDGFPRP	-0.0231
RRIRIRPPRLPRPRPRPTWPPRP	0.368
RRIRVRPPRLPRPRPRPPYDPRP	-0.0602
RRIRKRPPRLPRPRPRPYYCPRP	0.32
RRIRLRPPRLPRPRPRPTASPRP	0.0857
RRIRSRPPRLPRPRPRPLRWPRP	0.776

Sequence	shrunken log2 fold change
RRIRSRPPRLPRPRPRPACNPRP	-0.285
RRIRNRPPRLPRPRPRPGLWPRP	0.737
RRIRWRPPRLPRPRPRPVKSPRP	0.0342
RRIRPRPPRLPRPRPRPADSPRP	-0.0563
RRIRQRPPRLPRPRPRPAPKPRP	0.148
RRIRARPPRLPRPRPRPSIAPRP	0.186
RRIRRRPPRLPRPRPRPLDNPRP	-0.0599
RRIRRRPPRLPRPRPRPHHKPRP	-0.0355
RRIRMRPPRLPRPRPRPHRAPRP	0.677
RRIRFRPPRLPRPRPRPPQHPRP	0.108
RRIRMRPPRLPRPRPRPICIPRP	0.0141
RRIRQRPPRLPRPRPRPYTIPRP	-0.0485
RRIRKRPPRLPRPRPRPLAFPRP	0.278
RRIRWRPPRLPRPRPRPGVRPRP	0.304
RRIRHRPPRLPRPRPRPVFHPRP	-0.345
RRIRFRPPRLPRPRPRPACYPRP	-0.066
RRIRERPPRLPRPRPRPARNPRP	0.194
RRIRMRPPRLPRPRPRPKFRPRP	0.169
RRIRYRPPRLPRPRPRPKYMPRP	-0.998
RRIRCRPPRLPRPRPRPYFGPRP	-0.0436
RRIRGRPPRLPRPRPRPVSMPRP	0.401
